Results from patent publication US20210130470A1 (MacroGenics, published 2021).

Legend:
[1] = molecular target: T1, human CTLA-4 expressed on the cell surface (human, UniProt P16410 36-223); test: flow cytometry (FACS) on Jurkat cells expressing huCTLA-4 but not PD-1, anti-human Fc secondary antibody, MFI
T1 construct: also called huCTLA-4; CHO cells expressing human CTLA-4
T1 sequence: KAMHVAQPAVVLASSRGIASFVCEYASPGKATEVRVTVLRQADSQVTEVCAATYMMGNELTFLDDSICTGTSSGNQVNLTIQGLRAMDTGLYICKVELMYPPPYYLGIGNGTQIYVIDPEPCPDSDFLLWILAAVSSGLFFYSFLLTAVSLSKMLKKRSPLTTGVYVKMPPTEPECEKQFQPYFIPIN
Excerpt: Binding of the DART and TRIDENT molecules to human CTLA-4 was detected using anti-human FC secondary Ab (FACS).

hPD-1-His [2] = molecular target: T2, hPD-1-His (human, UniProt Q15116 25-170, limits assumed); test: ELISA, hPD-1-His (1 ug/mL) coated, goat anti-human-Fc-HRP detection
T2 construct: also called His-tagged soluble human PD-1; shPD-1
Excerpt: FIGS. 8A-8D show the results of ELISA studies measuring the binding of serially diluted binding molecules to human CTLA-4 and human PD-1. […] Goat anti-human-Fc-HRP (1:10,000) was employed as the secondary detection molecule to detect binding. FIGS. 8C-8D show the results of a study on the effect of altering orientations and binding domains on binding. […] Goat anti-human-Fcγ-HRP was employed as the secondary detection molecule to detect binding using PICO chemiluminescent substrate.
Goat anti-human-Fc-HRP (1:10,000) was employed as the secondary detection molecule to detect binding.

hPD-1-His [3] = molecular target: T2, hPD-1-His; test: competition ELISA: plate coated with shPD-1 and irrelevant antigen 1:1 (2 ug/ml each); blocked ligand biotin-labeled PD-L1 6 ug/ml, streptavidin-HRP, RLU
Description: (§1) A series of ELISA assays were conducted to evaluate the ability of bispecific molecules of the invention to block ligand binding to PD-1 and […], alone and in combination. […] Plates were coated with a 1:1 mix of His-tagged soluble human PD-1 (shPD-1) and a His-tagged irrelevant antigen (irrAg) (2 μg/ml each), or a 1:1 mix of shPD-1 and a His-tagged soluble human CTLA-4 (shCTLA-4) (2 μg/ml each).

[4] = molecular target: T3, PD-1 expressed on the cell surface (human, UniProt Q15116 21-288); test: cell-based competition (FACS): blocked ligand PD-L1-PE binding to NSO-PD-1 cells, MFI
T3 construct: also called NSO cells expressing PD-1; NSO-PD-1 cells

hPD-1-His [5] = molecular target: T2, hPD-1-His; test: competition ELISA: plate coated with shPD-1 and shCTLA-4 1:1 (2 ug/ml each); blocked ligand biotin-labeled PD-L1 6 ug/ml, streptavidin-HRP, RLU
Description: as §1

[6] = molecular target: T3, PD-1 expressed on the cell surface; test: cell-based competition (FACS): blocked ligand PD-L2-PE binding to NSO-PD-1 cells, MFI
hPD-1-His [7] = molecular target: T2, hPD-1-His; test: BIACORE, binder captured on F(ab)2 goat anti-human Fc, His-tagged soluble human PD-1 passed over at 6.25-100 nM; Langmuir 1:1 fit

binding result [1]: no binding (tested: about 100 nM)
EC50 (hPD-1-His [2]): 0.3 nM
IC50 (read off the curve) (hPD-1-His [3]): ~0.8 nM
IC50 (read off the curve) [4]: ~0.5 nM
IC50 (read off the curve) (hPD-1-His [5]): ~0.7 nM
IC50 (read off the curve) [6]: ~0.5 nM
Kd (hPD-1-His [7]): 1.1 nM
B1: PD-1 mAb 6 G4P (antibody, human IgG4 S228P, kappa, V domains shown)
VH: QVQLVQSGAEVKKPGASVKVSCKASGYSFTSYWMNWVRQAPGQGLEWIGVIHPSDSETWLDQKFKDRVTITVDKSTSTAYMELSSLRSEDTAVYYCAREHYGTSPFAYWGQGTLVTVSS
VL: EIVLTQSPATLSLSPGERATLSCRASESVDNYGMSFMNWFQQKPGQPPKLLIHAASNQGSGVPSRFSGSGSGTDFTLTISSLEPEDFAVYFCQQSKEVPYTFGGGTKVEIKR
notes: IgG4 with stabilized hinge, kappa; VH/VL of PD-1 mAb 6-ISQ; also called the PD-1 antibody; parental anti-PD-1 antibody
